Data reported in article PMC6891085.
Read-outs that look alike come from different tables or passages of the source.

Columns and labels:
Assay in all cases: co-sedimentation
[1] = target: taxol-stabilized microtubules (MTs) of porcine brain tubulin (porcine) (UniProt P02550)
[2] = target: subtilisin-treated MTs (s-MTs) (porcine) (UniProt P02550)
[3] = target: taxol-stabilized microtubules (MTs) of porcine brain tubulin (porcine) (UniProt P02550); remark: listed apart in the source

UniProt P02550, sequence (P02550 whole entry): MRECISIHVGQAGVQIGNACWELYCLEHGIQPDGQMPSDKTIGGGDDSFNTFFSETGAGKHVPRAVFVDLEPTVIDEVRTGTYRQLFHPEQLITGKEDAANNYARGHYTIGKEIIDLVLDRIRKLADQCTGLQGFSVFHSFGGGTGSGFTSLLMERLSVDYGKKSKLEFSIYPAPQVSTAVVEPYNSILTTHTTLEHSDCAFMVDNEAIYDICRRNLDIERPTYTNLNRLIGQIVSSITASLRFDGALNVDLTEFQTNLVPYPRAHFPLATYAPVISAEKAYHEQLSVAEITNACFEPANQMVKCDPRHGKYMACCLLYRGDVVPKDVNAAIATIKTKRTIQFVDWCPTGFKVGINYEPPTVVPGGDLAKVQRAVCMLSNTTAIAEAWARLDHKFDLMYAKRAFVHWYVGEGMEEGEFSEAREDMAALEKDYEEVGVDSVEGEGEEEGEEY

Row | Substance | Kd [1] [nM] | Kd [2] [nM] | Kd [3] [nM]
1 | Abl2-N-688 (from UniProt Q4JIM5 74-688) (domain or fragment) | 240 | – | –
2 | MBP-tagged Abl2-557-688 (from UniProt Q4JIM5 557-688) (domain or fragment) | 1300 | – | –
3 | Abl2 with MBP cleaved off (from UniProt Q4JIM5 74-1182) (enzyme) | 170 | – | –

Continued, values first:

Row | Kd [1] [nM] | Kd [2] [nM] | Kd [3] [nM] | Substance
4 | 700 | – | – | Abl2-557-C (from UniProt Q4JIM5 557-1182) (domain or fragment)
5 | 210 | > 3000 | 360 | MBP-tagged Abl2 (from UniProt Q4JIM5 74-1182) (enzyme)
